Results: publication PMC10170197 (Open Biology, 2023)

Experiments:
GFP-G3BP1-H31YH62Y = biological target: T1, GFP-G3BP1-H31YH62Y (UniProt Q13283 1-466, H31Y | H62Y); test: co-IP; GFP-Trap/anti-GFP beads from lysates of U2OS ΔΔG3BP1/2 cells stably expressing GFP-G3BP1-WT or mutants; EE lysis buffer; Western blot for Caprin-1 and USP10; conditions: partners not purified
T1 construct: G3BP1, full length, fused to GFP; source: U2OS ΔΔG3BP1/2 cells, stably transfected, in lysate

[1] = biological target: T2, G3BP1-NTF2 (residues 1–139) (UniProt Q13283 1-139); test: nanoDSF (thermal shift); G3BP1-NTF2 with 10 x molar excess of peptide, 4% DMSO; neutral pH (7.4); buffers as for ITC; conditions: both partners purified
T2 construct: G3BP1, NTF2-like domain, residues 1–139; Purified as a dimer; also called G3BP1-NTF2-WT; NTF2-WT; source: E. coli, purified (IMAC, Superdex 75 SEC, TEV cleavage, IMAC flow-through, SEC)

[2] = biological target: T2, G3BP1-NTF2 (residues 1–139); test: nanoDSF (thermal shift); G3BP1-NTF2 with 10 x molar excess of peptide, 4% DMSO; 25 mM MES pH 6.1, 150 mM NaCl, 10 mM MgCl2, 10% glycerol; conditions: both partners purified
NTF2-H31YH62Y = biological target: T3, NTF2-H31YH62Y (UniProt Q13283 1-139, H31Y | H62Y); test: as above; conditions: both partners purified
T3 construct: G3BP1 NTF2-like domain (limits as the G3BP1-NTF2 construct, residues 1–139) with H31Y and H62Y; also called G3BP1-NTF2-H31YH62Y

[3] = biological target: T2, G3BP1-NTF2 (residues 1–139); test: nanoDSF (thermal shift); G3BP1-NTF2 with 10 x molar excess of peptide, 4% DMSO; 25 mM Na-acetate pH 5.1, 150 mM NaCl, 10 mM MgCl2, 10% glycerol; conditions: both partners purified

T2 sequence (Q13283 1-139): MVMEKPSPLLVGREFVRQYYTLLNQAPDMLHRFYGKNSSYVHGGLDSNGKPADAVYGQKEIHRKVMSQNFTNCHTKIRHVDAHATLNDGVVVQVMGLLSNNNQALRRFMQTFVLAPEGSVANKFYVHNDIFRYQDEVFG
T1 sequence (Q13283 whole entry H31Y/H62Y, the tested form may be a part): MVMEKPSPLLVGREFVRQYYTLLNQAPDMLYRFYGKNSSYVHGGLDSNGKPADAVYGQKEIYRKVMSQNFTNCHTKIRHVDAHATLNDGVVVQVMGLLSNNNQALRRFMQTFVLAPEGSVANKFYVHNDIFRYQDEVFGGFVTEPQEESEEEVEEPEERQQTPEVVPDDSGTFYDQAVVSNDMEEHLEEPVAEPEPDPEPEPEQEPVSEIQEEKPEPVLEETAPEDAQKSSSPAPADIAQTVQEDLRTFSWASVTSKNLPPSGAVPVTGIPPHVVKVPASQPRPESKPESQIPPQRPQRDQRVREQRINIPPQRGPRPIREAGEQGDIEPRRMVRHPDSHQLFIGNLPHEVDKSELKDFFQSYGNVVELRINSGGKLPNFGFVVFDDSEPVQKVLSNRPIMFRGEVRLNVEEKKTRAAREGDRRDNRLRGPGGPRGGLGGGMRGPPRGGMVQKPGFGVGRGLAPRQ
T3 sequence (Q13283 1-139 H31Y/H62Y): as the sequence (Q13283 1-139) above, with H31Y, H62Y counted along it

reduction of co-precipitated Caprin-1 relative to wild-type G3BP1 (GFP-G3BP1-H31YH62Y) | binding result (NTF2-H31YH62Y) | Binder | ΔTm (ligand-binding-induced stabilization of NTF2) [1] | ΔTm (ligand-binding-induced stabilization of NTF2) [2] | ΔTm (ligand-binding-induced stabilization of NTF2) [3]
~50% |  | Caprin-1, endogenous in U2OS ΔΔG3BP1/2 cells (natural protein, human (endogenous in U2OS), UniProt Q14444 1-709, looked up, Caprin-1, endogenous protein detected by Western blot; source: endogenous, U2OS ΔΔG3BP1/2 lysate) MPSATSHSGSGSKSSGPPPPSGSSGSEAAAGAGAAAPASQHPATGTGAVQTEAMKQILGVIDKKLRNLEKKKGKLDDYQERMNKGERLNQDQLDAVSKYQEVTNNLEFAKELQRSFMALSQDIQKTIKKTARREQLMREEAEQKRLKTVLELQYVLDKLGDDEVRTDLKQGLNGVPILSEEELSLLDEFYKLVDPERDMSLRLNEQYEHASIHLWDLLEGKEKPVCGTTYKVLKEIVERVFQSNYFDSTHNHQNGLCEEEEAASAPAVEDQVPEAEPEPAEEYTEQSEVESTEYVNRQFMAETQFTSGEKEQVDEWTVETVEVVNSLQQQPQAASPSVPEPHSLTPVAQADPLVRRQRVQDLMAQMQGPYNFIQDSMLDFENQTLDPAIVSAQPMNPTQNMDMPQLVCPPVHSESRLAQPNQVPVQPEATQVPLVSSTSEGYTASQPLYQPSHATEQRPQKEPIDQIQATISLNTDQTTASSSLPAASQPQVFQAGTSKPLHSSGINVNAAPFQSMQTVFNMNAPVPPVNEPETLKQQNQYQASYNQSFSSQPHQVEQTELQQEQLQTVVGTYHGSPDQSHQVTGNHQQPPQQNTGFPRSNQPYYNSRGVSRGGSRGARGLMNGYRGPANGFRGGYDGYRPSFSNTPNSGYTQSQFSAPRDYSGYQRDGYQQNFKRGSGQSGPRGAPRGRGGPPRPNRGMPQMNTQQVN |  |  | 
 | binds | RQRVQDLMAQMQGPYNFIQDSMLDFENQTLD (Used for co-crystallisation and as peptide ligand in nanoDSF; also called Caprin-1-derived SLiM; source: synthetic peptide) [Caprin-1^356–386 peptide] | 3 °C | 2.5 °C | 5.5 °C
